Results as given in patent US8206955B2, “Production of monatin and monatin precursors” (Cargill, Incorporated, priority 2003, dated 2012).

B1: S. meliloti tatA: Sinorhizobium meliloti tyrosine aminotransferase (tatA, SEQ ID NOS: 1 and 2) (protein, listed as Sinorhizobium meliloti)
chain: MFDALARQADDPLLFLIGLFRKDERPGKVDLGVGVYRDETGRTPIFRAVKAAEKRLLETQDSKAYIGPEGDLVFLDRLWELVGGDTIERSHVAGVQTPGGSGALRLAADLIARMGGRGIWLGLPSWPNHAPIFKAAGLDIATYDFFDIPSQSVIFDNLVSALEGAASGDAVLLHASCHNPTGGVLSEAQWMEIAALVAERGLLPLVDLAYQGFGRGLDQDVAGLRHLLGVVPEALVAVSCSKSFGLYRERAGAIFARTSSTASADRVRSNLAGLARTSYSMPPDHGAAVVRTILDDPELRRDWTEELETMRLRMTGLRRSLAEGLRTRWQSLGAVADQEGMFSMLPLSEAEVMRLRTEHGIYMPASGRINIAGLKTAEAAEIAGKFTSL
B2: E. coli KHG: 4-hydroxy-2-oxoglutarate glyoxylate lyase (KHG aldolase) from E. coli (protein, UniProt P0A955 1-213, looked up)
KHG/KDPG aldolase: MKNWKTSAESILTTGPVVPVIVVKKLEHAVPMAKALVAGGVRVLEVTLRTECAVDAIRAIAKEVPEAIVGAGTVLNPQQLAEVTEAGAQFAISPGLTEPLLKAATEGTIPLIPGISTVSELMLGMDYGLKEFKFFPAEANGGVKALQAIAGPFSQVRFCPTGGISPANYRDYLALKSVLCIGGSWLVPADALEAGDYDRITKLAREAVEGAKL
B3: Porcine type I: commercial porcine glutamate-oxaloacetate aminotransferase, Sigma G2751 (protein, UniProt P00503 2-413, looked up)
Aspartate aminotransferase, …: APPSVFAEVPQAQPVLVFKLIADFREDPDPRKVNLGVGAYRTDDCQPWVLPVVRKVEQRIANDSSLNHEYLPILGLAEFRTCASRLALGDDSPALQEKRVGGVQSLGGTGALRIGAEFLARWYNGTNNKDTPVYVSSPTWENHNGVFTTAGFKDIRSYRYWDTEKRGLDLQGFLSDLENAPEFSIFVLHACAHNPTGTDPTPEQWKQIASVMKRRFLFPFFDSAYQGFASGNLEKDAWAIRYFVSEGFELFCAQSFSKNFGLYNERVGNLTVVAKEPDSILRVLSQMEKIVRVTWSNPPAQGARIVARTLSDPELFHEWTGNVKTMADRILSMRSELRARLEALKTPGTWNHITDQIGMFSFTGLNPKQVEYLINEKHIYLLPSGRINMCGLTTKNLDYVATSIHEAVTKIQ
B4: B. subtilis D-aminotransf.: Bacillus subtilis D-alanine aminotransferase (dat) (protein, UniProt O07597 1-282, looked up)
D-alanine aminotransferase: MKVLVNGRLIGRSEASIDLEDRGYQFGDGIYEVIRVYKGVLFGLREHAERFFRSAAEIGISLPFSIEDLEWDLQKLVQENAVSEGAVYIQTTRGVAPRKHQYEAGLEPQTTAYTFTVKKPEQEQAYGVAAITDEDLRWLRCDIKSLNLLYNVMTKQRAYEAGAFEAILLRDGVVTEGTSSNVYAVINGTVRTHPANRLILNGITRMNILGLIEKNGIKLDETPVSEEELKQAEEIFISSTTAEIIPVVTLDGQSIGSGKPGPVTKQLQAAFQESIQQAASIS
B5: L. major bsat: Leishmania major broad substrate aminotransferase (bsat, SEQ ID NOS: 7 and 8) (protein)
chain: MSMQAAMTTAERWQKIQAQAPDVIFDLAKRAAAAKGPKANLVIGAYRDEQGRPYPLRVVRKAEQLLLDMNLDYEYLPISGYQPFIDEAVKIIYGNTVELENLVAVQTLSGTGAVSLGAKLLTRVFDAETTPIYLSDPTWPNHYGVVKAAGWKNICTYAYYDPKTVSLNFEGMKKDILAAPDGSVFILHQCAHNPTGVDPSQEQWNEIASLMLAKHHQVFFDSAYQGYASGSLDTDAYAARLFARRGIEVLLAQSFSKNMGLYSERAGTLSLLLKDKTKRADVKSVMDSLIREEYTCPPAHGARLAHLILSNNELRKEWEAELSAMAERIRTMRRTVYDELLRLQTPGSWEHVINQIGMFSFLGLSKAQCEYCQNHNIFITVSGRANMAGLTHETALMLAQTINDAVRNVNRE
modifications: Leishmania major

Key:
Format in all cases: biochemical
[1] = monatin aminotransferase assay (loss of monatin by LC/MS)
Method: Transamination activity. Monatin aminotransferase assays were conducted with the aspartate aminotransferase (AspC) from E. coli, the tyrosine aminotransferase (TyrB) from E. coli, the broad substrate aminotransferase (BSAT) from L. major, and the two commercially available porcine glutamate-oxaloacetate aminotransferases described in Example 1. Both oxaloacetate and alpha-ketoglutarate were tested as the amino acceptor. The assay mixture contained (in 0.5 mL) 50 mM Tris-HCl, pH 8.0, 0.05 mM PLP, 5 mM amino acceptor, 5 mM monatin, and 25 μg of aminotransferase. The assays were incubated at 30° C. for 30 minutes, and the reactions were stopped by addition of 0.5 mL isopropyl alcohol. The loss of monatin was monitored by LC/MS (Example 6). […] The relative activity with oxaloacetate was: BSAT>AspC>porcine type IIa>porcine type I=TyrB. The relative activity with alpha-ketoglutarate was: BSAT>AspC>porcine type I>porcine type IIa>TyrB.

[2] = tryptophan aminotransferase activity, production of indole-pyruvic acid; settings: for tryptophan aminotransferase activity (in words): recombinant clones expressed in E. coli
Method: (§1) Cell extracts were analyzed by SDS-PAGE, and assayed for tryptophan aminotransferase activity by following production of indole-pyruvic acid using the following protocol. One mL reactions were carried out in 50 mM sodium tetraborate (pH 8.5), 0.5 mM EDTA, 0.5 mM sodium arsenate, 50 μM pyridoxal phosphate, 5 mM α-ketoglutarate, and 5 mM L-tryptophan. The reactions were initiated by the addition of cell free extracts or purified enzyme and were incubated 30 minutes at 30° C. 20% TCA (200 μL) was added to stop the reaction, and the precipitated protein was removed by centrifugation. The absorbance at 327 nm was measured and compared to a standard curve of freshly prepared indole-3-pyruvate in the assay buffer. Control reactions without the substrate tryptophan or using cell-free extracts from clones transformed with pET30a alone were also performed.
Due to background from the native E. coli aminotransferases in cell extracts, the recombinant fusion proteins each containing an aminotransferase protein fused to the pET30 amino terminal HIS6-Tag/S-Tag (6×HIS tag disclosed as SEQ ID NO: 90) were purified using immobilized metal affinity chromatography with His-Bind cartridges following manufacturer's protocols (Novagen, Madison, Wis.). The HIS6-Tag sequence (SEQ ID NO: 90) of the fusion proteins binds to the divalent Ni^2+ cations immobilized on IDA-based His-Bind resin. The eluent fractions were desalted on PD-10 (Amersham Biosciences, Piscataway, N.J.) columns and eluted in 50 mM Tris, pH 7.0. Purified proteins were analyzed by SDS-PAGE and assayed for aminotransferase activity.
(§2) Table 1 lists the specific activities measured in micrograms of indole-3-pyruvate (I3P) formed per milligram protein per minute. […] In these cases a ‘>’ precedes the specific activity number.

[3] = in vitro monatin production with aldolase and aminotransferase; settings: 30 μg/mL KHG enzyme, 50 mM Tris pH 8.3, saturating tryptophan, one hour
[4] = aminotransferase activity using D-tryptophan as substrate; settings: purified (P)
Method: as §1, with “One mL reactions were carried out in 50 mM sodium tetraborate (pH 8.5), 0.5 mM EDTA, 0.5 mM sodium arsenate, 50 μM pyridoxal phosphate, 5 mM α-ketoglutarate, and 5 mM L-tryptophan.” left out
as §2

[5] = cell extracts (CE), 5 mM L-tryptophan, 30 minutes at 30° C.
[6] = purified (P), 5 mM L-tryptophan, 30 minutes at 30° C.

Molecule | Specific Activity [2, 5] | Specific Activity [2, 6] | tryptophan aminotransferase activity (in words) [2] | further results
B1 | >28.6 μg I3P/mg protein/min | >931 μg I3P/mg protein/min | significant levels of tryptophan aminotransferase activity | conversion of monatin to MP (in words) ([1]; similar assays, conditions tested): did not appear to detectably convert monatin to MP
B2 | – | – | – | monatin produced [3]: 3000 ng/mL
B3 | – | – | – | Specific Activity ([2]; commercial enzyme (Sigma)): 1 μg I3P/mg protein/min
B4 | – | – | – | Specific Activity [4]: 2.7 μg I3P/mg protein/min
B5 | >49.3 μg I3P/mg protein/min | >4280 μg I3P/mg protein/min | significant levels of tryptophan aminotransferase activity | monatin transamination activity (in words) ([1]; oxaloacetate as the amino acceptor, 5 mM monatin, 25 μg aminotransferase, 30° C. 30 minutes): highest amount of activity
